Data on 67 molecules can be found in patent US20170037110A1 (IMMATICS BIOTECHNOLOGIES, published 2017).

A value given as a limit tells only on which side of the number the result lay.

In this assay the target is T1, HLA-A*02:01 (human).
T1 construct: monomers captured on streptavidin plates; also called MHC class I
Nature of the assay: UV peptide exchange ELISA. The procedure, abridged:
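Peptide-MHC complexes formed by UV-triggered exchange of a cleavable peptide for the test peptide, with stabilised complexes indicating binding. Exchange products diluted 100 fold onto streptavidin-coated wells, 1h at 37° C.; HRP anti-β2m (2 μg/ml), TMB, absorbance at 450 nm gives exchange yield.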
The molecule GLLRDEALAEV registered a peptide exchange yield of 50 to 75%.

In the case of LILDWVPYI, the peptide exchange yield is 50 to 75%.

In the case of KVSNSGITRV, the peptide exchange yield fell in the range of 20 to 50%.

Molecule ILLDDTGLAYI registered a peptide exchange yield of 50 to 75%.

SMAPGLVIQAV had a peptide exchange yield of 50 to 75%.

For the molecule KINDTIYEV, the peptide exchange yield was 50 to 75%.

ALMERTGYSMV yielded a peptide exchange yield of 50 to 75%.

Consider VLDDSIYLV, for which the peptide exchange yield lay in the range of 20 to 50%.

AMLEKNYKL gave a peptide exchange yield of at least 75%.

Molecule VLFSGALLGL came in with a peptide exchange yield of 20 to 50%.

On to ALITEVVRL, for which the peptide exchange yield lay within 20 to 50%.

SLLPGNLVEKV gave a peptide exchange yield of 50 to 75%.

GLWEIENNPTV gave a peptide exchange yield of 50 to 75%.

YLAPELFVNV came in with a peptide exchange yield of 20 to 50%.

ILLEHGADPNL had a peptide exchange yield of 50 to 75%.

Turning to YLLQEIYGI, the peptide exchange yield was in the range of 50 to 75%.

VMFRTPLASV: the peptide exchange yield was in the range of 20 to 50%.

Take AMATESILHFA: the peptide exchange yield fell in the range of 50 to 75%.

The molecule SLLTEQDLWTV gave a peptide exchange yield of 20 to 50%.

KLAKQPETV had a peptide exchange yield of 50 to 75%.

Molecule GLVNDLARV registered a peptide exchange yield of 20 to 50%.

LLDAMNYHL registered a peptide exchange yield of 20 to 50%.

In the case of YLASDEITTV, the peptide exchange yield was 50 to 75%.

The molecule SLVNVVPKL displayed a peptide exchange yield of 20 to 50%.

With HLAEVSAEV, the peptide exchange yield is 50 to 75%.

As to KLAEGLDIQL, the peptide exchange yield lay within 50 to 75%.

The molecule AMLNEPWAV had a peptide exchange yield of 50 to 75%.

As for ILVEADSLWVV, the peptide exchange yield is 50 to 75%.

KLGHTDILVGV registered a peptide exchange yield of 20 to 50%.

In turn, KLDDLTQDLTV registered a peptide exchange yield of 20 to 50%.

Take QLIPALAKV: the peptide exchange yield is 50 to 75%.

In the case of QLVPALAKV, the peptide exchange yield is 20 to 50%.

For the molecule RLADKSVLV, the peptide exchange yield was 50 to 75%.

GLLGGGGVLGV displayed a peptide exchange yield of 50 to 75%.

In turn, VLIANLEKL displayed a peptide exchange yield of at least 75%.

As to ALNDCIYSV, the peptide exchange yield was 50 to 75%.

As for KLLPLAGLYL, the peptide exchange yield was at least 75%.

As to ALYDVFLEV, the peptide exchange yield was in the range of 20 to 50%.

Turning to LLLLDTVTMQV, the peptide exchange yield lay in the range of 20 to 50%.

Molecule LLIGHLERV displayed a peptide exchange yield of 50 to 75%.

Regarding SLLKEPQKVQL, the peptide exchange yield was 20 to 50%.

Regarding YLDPALELGPRNV, the peptide exchange yield lay within 50 to 75%.

In the case of ALLPASGQIAL, the peptide exchange yield was 50 to 75%.

The molecule QLCDLNAEL had a peptide exchange yield of 50 to 75%.

In turn, HLYSSIEHLTT returned a peptide exchange yield of 50 to 75%.

The molecule KLLEATSAV showed a peptide exchange yield of 20 to 50%.

In turn, YLFEPLYHV came in with a peptide exchange yield of 50 to 75%.

With KLYDRILRV, the peptide exchange yield lay in the range of 20 to 50%.

Molecule ALLENPKMEL registered a peptide exchange yield of 50 to 75%.

FMIDASVHPTL returned a peptide exchange yield of 50 to 75%.

With NLLETKLQL, the peptide exchange yield fell in the range of 50 to 75%.

As for KLLEEDGTIITL, the peptide exchange yield was 20 to 50%.

In turn, ALLPLSPYL displayed a peptide exchange yield of 50 to 75%.

YLFGERLLEC registered a peptide exchange yield of 50 to 75%.

In the case of TLIEESAKV, the peptide exchange yield lay in the range of 20 to 50%.

The molecule ALADGVTMQV registered a peptide exchange yield of 20 to 50%.

For KLLEVSDDPQV, the peptide exchange yield is 50 to 75%.

As to YLYNNMIAKI, the peptide exchange yield is 50 to 75%.

The molecule YLDDLNEGVYI registered a peptide exchange yield of 20 to 50%.

On to SLVESHLSDQLTL, for which the peptide exchange yield lay within 50 to 75%.

Molecule FLAKDFNFL came in with a peptide exchange yield of 50 to 75%.

Molecule YLMDLINFL came in with a peptide exchange yield of 50 to 75%.

KLPPPPPQA: the peptide exchange yield is 50 to 75%.

In turn, VLLSLLEKV had a peptide exchange yield of 20 to 50%.

Molecule LLLNEEALAQI returned a peptide exchange yield of 50 to 75%.

Regarding SLIDKLYNI, the peptide exchange yield lay in the range of 20 to 50%.

The molecule YLRSVGDGETV yielded a peptide exchange yield of 50 to 75%.
